Laboratory results reported in doi:10.1101/2022.06.23.497280 (bioRxiv, 2022).

T1: HU-B (UniProt P0ACF4 1-90, F47W)
T1 sequence: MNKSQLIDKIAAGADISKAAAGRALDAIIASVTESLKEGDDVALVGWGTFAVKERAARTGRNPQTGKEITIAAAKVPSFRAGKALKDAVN

B1: HU-A (F79W mutant of HU-A) (natural protein, E. coli)
chain: MNKTQLIDVIAEKAELSKTQAKAALESTLAAITESLKEGDAVQLVGFGTFKVNHRAERTGRNPQTGKEIKIAAANVPAWVSGKALKDAVK
B2: 4WJ DNA (four-way junction, cruciform) (structured_DNA)
DNA 1: CCCTATAACCCCTGCATTGAATTCCAGTCTGATAA
DNA 2: GTAGTCGTGATAGGTGCAGGGGTTATAGGG
DNA 3: AACAGTAGCTCTTATTCGAGCTCGCGCCCTATCACGACTA
DNA 4: TTTATCAGACTGGAATTCAAGCGCGAGCTCGAATAAGAGCTACTGT

Columns and labels:
[1] = target: the molecule itself; experiment: SEC
[2] = target: HU-A (UniProt P0ACF0 1-90, F79W); experiment: EMSA
[3] = target: T1, HU-B; experiment: EMSA

| Binder | stoichiometry N [1] | binding result [2] | binding result [3] |
| --- | --- | --- | --- |
| B1 | 2 |  |  |
| B2 |  | binds | binds |
